Here are results for one substance from patent publication US20190351013.

The data set addresses HPV16 L2 minor capsid protein (UniProt P03107).

HPV16 L2 minor capsid protein, sequence (P03107 whole entry): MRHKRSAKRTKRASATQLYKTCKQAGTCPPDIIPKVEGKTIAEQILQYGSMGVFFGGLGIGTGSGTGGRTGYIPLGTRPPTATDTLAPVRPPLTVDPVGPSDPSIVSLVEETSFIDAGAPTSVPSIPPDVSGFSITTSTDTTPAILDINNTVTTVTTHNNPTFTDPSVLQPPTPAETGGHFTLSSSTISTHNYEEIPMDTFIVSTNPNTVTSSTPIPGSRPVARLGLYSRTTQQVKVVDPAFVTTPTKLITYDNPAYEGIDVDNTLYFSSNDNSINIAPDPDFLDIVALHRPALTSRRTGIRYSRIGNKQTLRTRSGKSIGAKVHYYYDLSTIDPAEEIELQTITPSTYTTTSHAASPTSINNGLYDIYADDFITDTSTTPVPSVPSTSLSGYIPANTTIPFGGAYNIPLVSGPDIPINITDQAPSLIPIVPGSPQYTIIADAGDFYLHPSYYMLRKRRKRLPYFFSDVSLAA

As for recombinant His-furin, the “cleavage of HPV16 L2 by furin, immunoblot with anti-HPV16 polyclonal antibody” value is “furin cleaves the L2 protein in the absence of polyR and FI”.
